Source: US20090123479A1 (published 2009)
Substitutions are numbered along the chain they refer to.

T1: recombinant human IL-23 (human, UniProt Q9NPF7 20-189; P29460 23-328)
T1 construct: also called hIL-23
T1 sequence 1: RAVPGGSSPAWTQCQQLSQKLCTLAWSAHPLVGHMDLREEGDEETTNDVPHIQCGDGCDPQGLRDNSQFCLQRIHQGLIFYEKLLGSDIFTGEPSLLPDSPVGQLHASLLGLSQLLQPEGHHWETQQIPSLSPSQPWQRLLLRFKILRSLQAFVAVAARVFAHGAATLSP
T1 sequence 2: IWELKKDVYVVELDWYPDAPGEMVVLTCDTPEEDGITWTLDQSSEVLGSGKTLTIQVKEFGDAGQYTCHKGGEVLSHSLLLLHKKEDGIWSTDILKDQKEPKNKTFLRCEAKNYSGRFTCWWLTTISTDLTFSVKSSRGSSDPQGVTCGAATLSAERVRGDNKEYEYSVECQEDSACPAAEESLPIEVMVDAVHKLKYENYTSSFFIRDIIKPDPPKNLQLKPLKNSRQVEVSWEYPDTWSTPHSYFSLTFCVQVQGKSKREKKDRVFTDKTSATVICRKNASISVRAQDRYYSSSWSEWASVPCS

B1: A5M0 (antibody, human IgG1, kappa, V domains shown)
VH: QVQLVQSGAEVKKPGSSVKVSCKASGYTFTSYGITWVRQAPGQGLEWMGENYPRSGNTYYNEKFKGRVTITADKSTSTAYMELSSLRSEDTAVYYCARAEFISTVVAPYYYALDYWGQGTLVTVSS
VL: DIVMTQSPDSLAVSLGERATINCKASKKVTIFGSISALHWYQQKPGQPPKLIYNGAKLESGVPDRFSGSGSGTDFTLTISSLQAEDVAVYYCLQNKEVPYTFGGGTKVEIKR
notes: Full length chains
B2: A6M0 (antibody, human IgG1, kappa, V domains shown)
VH: B1 VH with A99V
VL: B1 VL
notes: Full length chains
B3: A7M3 (antibody, human IgG1, kappa, V domains shown)
VH: B1 VH with N51D, A99S
VL: B1 VL with I35T
notes: Full length chains
B4: A3M4 (antibody, human IgG1, kappa, V domains shown)
VH: B1 VH with A99S
VL: B1 VL with I35T, L58P
notes: Full length chains
B5: A3M5 (antibody, human IgG1, kappa, V domains shown)
VH: B1 VH with A99S
VL: B1 VL with N54D
notes: Full length chains
B6: A3M6 (antibody, human IgG1, kappa, V domains shown)
VH: B1 VH with A99S
VL: B1 VL with N54Q
notes: Full length chains
B7: A5M4 (antibody, human IgG1, kappa, V domains shown)
VH: B1 VH
VL: B1 VL with I35T, L58P
notes: Full length chains
B8: A6M4 (antibody, human IgG1, kappa, V domains shown)
VH: B1 VH with A99V
VL: B1 VL with I35T, L58P
notes: Full length chains
B9: A7M4 (antibody, human IgG1, kappa, V domains shown)
VH: B1 VH with N51D, A99S
VL: B1 VL with I35T, L58P
notes: Full length chains
B10: A10M3 (antibody, human IgG1, kappa, V domains shown)
VH: B1 VH with T30A, V93M, A99S
VL: B1 VL with I35T
notes: Full length chains
B11: A10M4 (antibody, human IgG1, kappa, V domains shown)
VH: B1 VH with T30A, V93M, A99S
VL: B1 VL with I35T, L58P
notes: Full length chains
B12: A12.5M3 (antibody, V domains shown)
VH: B1 VH with T30A, A99V
VL: DIVMTQSPDSLAVSLGERATINCKASKKVTIFGSTSALHWYQQKPGQPPKLIYNGAKLESGVPDRFSGSGSGTDFTLTISSLQAEDVAVYYCLQNKEVPYTFGGGTKVEIK
B13: A8M4 (antibody, V domains shown)
VH: B1 VH with N51D
VL: B12 VL with L58P
B14: A9M4 (antibody, V domains shown)
VH: B1 VH with N51D, A99V
VL: B12 VL with L58P
B15: A10.5M3 (antibody, V domains shown)
VH: B1 VH with T30A, A99S
VL: B12 VL
B16: A10.5M4 (antibody, V domains shown)
VH: B1 VH with T30A, A99S
VL: B12 VL with L58P
B17: A11.5M3 (antibody, V domains shown)
VH: B1 VH with T30A
VL: B12 VL
B18: A11.5M4 (antibody, V domains shown)
VH: B1 VH with T30A
VL: B12 VL with L58P
B19: A11M3 (antibody, V domains shown)
VH: B1 VH with T30A, V93M
VL: B12 VL
B20: A11M4 (antibody, V domains shown)
VH: B1 VH with T30A, V93M
VL: B12 VL with L58P
B21: A12.5M4 (antibody, V domains shown)
VH: B1 VH with T30A, A99V
VL: B12 VL with L58P
B22: A12M3 (antibody, V domains shown)
VH: B1 VH with T30A, V93M, A99V
VL: B12 VL
B23: A12M4 (antibody, V domains shown)
VH: B1 VH with T30A, V93M, A99V
VL: B12 VL with L58P

Each binder was assayed against T1, recombinant human IL-23 (assay: SPR (Biacore T100), purified antibody captured on anti-human IgG, IL-23 analyte, 1:1 model).
Experimental: (§1) Biacore analysis was carried out using a capture surface on a CM5 chip. Anti-human IgG (BR-1008-39) was used as the capturing agent. Anti-human IgG was coupled to a CM5 biosensor chip by primary amine coupling. Humanized antibody was captured on this immobilised surface and defined concentrations of IL-23 were passed over this captured surface. An injection of buffer over the captured antibody surface was used for double-referencing. […] T100 Biacore machine was used to generate the data; all runs were carried out at 25° C. using HBS EP. Data was analysed using the software inherent to the machine and fitted to the 1:1 model of binding. Tables 7 and 8 detail the IL-23 binding analysis carried out on the 8C92H6.HC1LC1 chimera and selected humanized variants in two separate experiments. Data presented in Tables 7 and 8 are from purified antibody samples. The data shown for the humanized variants is representative of a number of runs. The chimeric mAb (8C9H6.HC1LC1) was only run once in each experiment, so data shown for this mAb is from that one run.
B1 gave a Kd of 0.103 nM, a koff of 0.000171 s⁻¹ and a kon of 1.65e+06 M⁻¹ s⁻¹.
B2 showed a Kd of 0.101 nM, a koff of 0.000298 s⁻¹ and a kon of 2.95e+06 M⁻¹ s⁻¹.
B3 gave a Kd of 0.144 nM, a koff of 0.000145 s⁻¹ and a kon of 1.01e+06 M⁻¹ s⁻¹.

The binders below were run against T1, recombinant human IL-23 (assay: SPR (Biacore T100), tissue culture supernatant antibody captured on anti-human IgG, IL-23 analyte).
Experimental: as §1, with “Data presented in Tables 7 and 8 are from purified antibody samples.” left out
In the case of B4, the Kd is reported as 0.0775 nM, the koff is reported as 0.000106 s⁻¹ and the kon is reported as 1.36e+06 M⁻¹ s⁻¹.
B5 gave a Kd of 26.4 nM, a koff of 0.0012 s⁻¹ and a kon of 45500 M⁻¹ s⁻¹.
B6 showed a Kd of 1.23 nM, a koff of 0.0011 s⁻¹ and a kon of 896000 M⁻¹ s⁻¹.
B7 was tested, and the Kd was 0.053 nM, the koff was 0.000101 s⁻¹ and the kon was 1.91e+06 M⁻¹ s⁻¹.
Work on B8 yielded a Kd of 0.0465 nM, a koff of 0.000149 s⁻¹ and a kon of 3.22e+06 M⁻¹ s⁻¹.
B9 was tested, and the Kd was 0.0918 nM, the koff was 0.000123 s⁻¹ and the kon was 1.34e+06 M⁻¹ s⁻¹.
B10 gave a Kd of 0.106 nM, a koff of 0.000117 s⁻¹ and a kon of 1.11e+06 M⁻¹ s⁻¹.
In the case of B11, the Kd is reported as 0.0733 nM, the koff is reported as 0.000107 s⁻¹ and the kon is reported as 1.46e+06 M⁻¹ s⁻¹.
B12 gave a Kd of 0.0637 nM, a koff of 0.000172 s⁻¹ and a kon of 2.7e+06 M⁻¹ s⁻¹.
B13 showed a Kd of 0.0462 nM, a koff of 9.58e-05 s⁻¹ and a kon of 2.08e+06 M⁻¹ s⁻¹.
Work on B14 yielded a Kd of 0.0456 nM, a koff of 0.000129 s⁻¹ and a kon of 2.83e+06 M⁻¹ s⁻¹.
With B15 the Kd was 0.0962 nM, the koff was 0.000115 s⁻¹ and the kon was 1.19e+06 M⁻¹ s⁻¹.
For B16, the Kd was 0.0416 nM, the koff was 8.64e-05 s⁻¹ and the kon was 2.08e+06 M⁻¹ s⁻¹.
In the case of B17, the Kd is reported as 0.0606 nM, the koff is reported as 9.38e-05 s⁻¹ and the kon is reported as 1.55e+06 M⁻¹ s⁻¹.
In the case of B18, the Kd is reported as 0.0665 nM, the koff is reported as 9.62e-05 s⁻¹ and the kon is reported as 1.45e+06 M⁻¹ s⁻¹.
With B19 the Kd was 0.0671 nM, the koff was 9.57e-05 s⁻¹ and the kon was 1.43e+06 M⁻¹ s⁻¹.
With B20 the Kd was 0.0444 nM, the koff was 9.18e-05 s⁻¹ and the kon was 2.07e+06 M⁻¹ s⁻¹.
In the case of B21, the Kd is reported as 0.0483 nM, the koff is reported as 0.000151 s⁻¹ and the kon is reported as 3.12e+06 M⁻¹ s⁻¹.
B22 showed a Kd of 0.0794 nM, a koff of 0.000202 s⁻¹ and a kon of 2.54e+06 M⁻¹ s⁻¹.
In the case of B23, the Kd is reported as 0.0553 nM, the koff is reported as 0.000163 s⁻¹ and the kon is reported as 2.94e+06 M⁻¹ s⁻¹.

What follows are binders tested against T1, recombinant human IL-23 (assay: IL-23/IL-23R inhibition ELISA (optimised protocol, OD450): plate coated with human IL23R Fc chimera, antibody pre-incubated with constant human IL-23, bound IL-23 detected with biotinylated anti-human IL-12; purified antibody).
Experimental: Optimised protocol: Plates were coated with human IL23R Fc chimera at […] (phosphate buffered saline). 50 μl/well of this mixture was incubated overnight at 4° C. The plates were then washed three times with Phosphate Buffered Saline with 0.05% Tween 20 (PBST). Plates were blocked with 4% skim milk powder (Fluka BioChemika #70166) PBST 100 μl/well for a minimum of 1 hour at room temperature. The plates were then washed three times with Phosphate Buffered Saline+0.05% Tween 20 (PBST). Various concentrations of antibody were incubated in a separate plate with a constant concentration of IL-23 for 1 hour at room temperature. 50 ul of each mixture were transferred to the assay plate and incubated at RT for 1 hr. They were then washed three times with Phosphate Buffered Saline+0.05% Tween 20 (PBST). Bound IL23 was detected by anti human 1L12 Biotin labelled Ab (R&D systems BAF219) diluted to 100 ng/ml in 4% skim milk powder (Fluka BioChemika #70166) PBST. 50 μl/well of the biotinylated antibody was added and incubated at RT for 1 hour. The plates were then washed three times with Phosphate Buffered Saline+0.05% Tween 20 (PBST). SA HRP (GE healthcare RPN4401) was diluted 1/4000 in 4% skim m ilk powder (Fluka BioChemika #70166) PBS, 50 μl/well was added to the plates. The plates were then washed three times with Phosphate Buffered Saline+0.05% Tween 20 (PBST). 50 ul/well of TMB was added to the plates and incubated at RT for 15 min. 25 μl/well of 3 MH₂SO₄ was added to the wells already containing TMB. The plate was read at OD450 nm using the SOftmaxPRO versamax plate reader.
For B1, the “IC50 (read off the curve)” value was roughly 0.2 nM.
With B2 the “IC50 (read off the curve)” value was roughly 0.2 nM.
B3 was tested, and the “IC50 (read off the curve)” value was roughly 0.2 nM.
